Assay results: doi:10.1101/2020.09.09.290171 (bioRxiv, 2020)

Biological target: T1, recombinant NRPD1 fused at its C-terminus to a FLAG epitope tag (Arabidopsis thaliana, UniProt Q9LQ02 1-1453)
T1 sequence: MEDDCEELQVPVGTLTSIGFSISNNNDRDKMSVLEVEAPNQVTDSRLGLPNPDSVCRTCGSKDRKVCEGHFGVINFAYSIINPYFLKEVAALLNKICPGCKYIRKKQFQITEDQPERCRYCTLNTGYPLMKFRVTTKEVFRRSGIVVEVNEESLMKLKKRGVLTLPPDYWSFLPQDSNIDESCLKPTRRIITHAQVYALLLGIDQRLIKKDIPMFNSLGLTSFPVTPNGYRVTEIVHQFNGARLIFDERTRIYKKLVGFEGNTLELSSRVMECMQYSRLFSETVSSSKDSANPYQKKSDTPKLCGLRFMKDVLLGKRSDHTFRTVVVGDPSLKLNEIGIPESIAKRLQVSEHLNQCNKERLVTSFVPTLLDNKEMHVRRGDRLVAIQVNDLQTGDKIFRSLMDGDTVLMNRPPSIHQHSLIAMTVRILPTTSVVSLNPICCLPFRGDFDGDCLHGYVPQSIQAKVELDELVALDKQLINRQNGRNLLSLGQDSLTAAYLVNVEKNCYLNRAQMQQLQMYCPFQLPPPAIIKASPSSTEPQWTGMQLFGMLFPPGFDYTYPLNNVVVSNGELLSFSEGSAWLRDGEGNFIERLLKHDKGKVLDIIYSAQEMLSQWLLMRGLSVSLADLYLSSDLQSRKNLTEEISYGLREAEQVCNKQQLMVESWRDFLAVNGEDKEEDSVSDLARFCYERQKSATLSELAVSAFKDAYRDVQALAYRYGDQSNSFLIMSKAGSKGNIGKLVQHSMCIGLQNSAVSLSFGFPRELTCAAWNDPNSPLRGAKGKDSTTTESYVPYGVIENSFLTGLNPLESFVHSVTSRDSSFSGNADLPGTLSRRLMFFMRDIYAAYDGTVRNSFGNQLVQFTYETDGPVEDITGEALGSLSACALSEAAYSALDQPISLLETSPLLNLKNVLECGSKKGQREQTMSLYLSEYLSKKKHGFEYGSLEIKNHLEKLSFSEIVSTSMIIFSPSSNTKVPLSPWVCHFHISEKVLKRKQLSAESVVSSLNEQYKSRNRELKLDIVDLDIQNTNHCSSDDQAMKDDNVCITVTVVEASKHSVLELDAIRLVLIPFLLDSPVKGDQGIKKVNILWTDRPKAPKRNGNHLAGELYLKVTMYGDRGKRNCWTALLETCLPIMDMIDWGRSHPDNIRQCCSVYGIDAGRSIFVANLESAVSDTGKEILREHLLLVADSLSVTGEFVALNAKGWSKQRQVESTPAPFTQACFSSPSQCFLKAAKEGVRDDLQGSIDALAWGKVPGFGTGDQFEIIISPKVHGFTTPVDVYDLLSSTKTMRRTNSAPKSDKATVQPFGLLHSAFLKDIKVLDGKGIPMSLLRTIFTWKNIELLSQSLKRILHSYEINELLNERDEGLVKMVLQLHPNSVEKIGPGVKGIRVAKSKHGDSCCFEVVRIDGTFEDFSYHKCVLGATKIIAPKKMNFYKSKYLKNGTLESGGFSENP
Assay: co-IP

B1: recombinant RDR2 (RNA-DEPENDENT RNA POLYMERASE 2), wild type, with N-terminal V5 epitope and 6xHis tags (enzyme)
chain: MVSETTTNRSTVKISNVPQTIVADELLRFLELHLGEDTVFALEIPTTRDNWKPRDFARVQFTTLEVKSRAQLLSSQSKLLFKTHNLRLSEAYDDIIPRPVDPRKRLDDIVLTVGFPESDEKRFCALEKWDGVRCWILTEKRRVEFWVWESGDCYKIEVRFEDIIETLSCCVNGDASEIDAFLLKLKYGPKVFKRVTVHIATKFKSDRYRFCKEDFDFMWIRTTDFSGSKSIGTSTCFCLEVHNGSTMLDIFSGLPYYREDTLSLTYVDGKTFASAAQIVPLLNAAILGLEFPYEILFQLNALVHAQKISLFAASDMELIKILRGMSLETALVILKKLHQQSSICYDPVFFVKTQMQSVVKKMKHSPASAYKRLTEQNIMSCQRAYVTPSKIYLLGPELETANYVVKNFAEHVSDFMRVTFVEEDWSKLPANALSVNSKEGYFVKPSRTNIYNRVLSILGEGITVGPKRFEFLAFSASQLRGNSVWMFASNEKVKAEDIREWMGCFRKIRSISKCAARMGQLFSASRQTLIVRAQDVEQIPDIEVTTDGADYCFSDGIGKISLAFAKQVAQKCGLSHVPSAFQIRYGGYKGVIAVDRSSFRKLSLRDSMLKFDSNNRMLNVTRWTESMPCFLNREIICLLSTLGIEDAMFEAMQAVHLSMLGNMLEDRDAALNVLQKLSGENSKNLLVKMLLQGYAPSSEPYLSMMLRVHHESQLSELKSRCRILVPKGRILIGCMDEMGILEYGQVYVRVTLTKAELKSRDQSYFRKIDEETSVVIGKVVVTKNPCLHPGDIRVLDAIYEVHFEEKGYLDCIIFPQKGERPHPNECSGGDLDGDQFFVSWDEKIIPSEMDPPMDYAGSRPRLMDHDVTLEEIHKFFVDYMISDTLGVISTAHLVHADRDPEKARSQKCLELANLHSRAVDFAKTGAPAEMPYALKPREFPDFLERFEKPTYISESVFGKLYRAVKSSLAQRKPEAESEDTVAYDVTLEEAGFESFIETAKAHRDMYGEKLTSLMIYYGAANEEEILTGILKTKEMYLARDNRRYGDMKDRITLSVKDLHKEAMGWFEKSCEDEQQKKKLASAWYYVTYNPNHRDEKLTFLSFPWIVGDVLLDIKAENAQRQSVEEKTSGLVSI
  binding result: binds
